The results in this text go back to patent publication US20250296996A1 (BROADWING BIO, published 2025).

Residue numbers refer to the chain shown, from its start.

The labels stand for the following.
T1: P60 (huANGPTL7-Fibrinogen-his) (human, UniProt O43827 129-343)
T1 construct: also called human ANGPTL7 fibrinogen domain; not shown: C-terminal short linker and His tag
T1 sequence: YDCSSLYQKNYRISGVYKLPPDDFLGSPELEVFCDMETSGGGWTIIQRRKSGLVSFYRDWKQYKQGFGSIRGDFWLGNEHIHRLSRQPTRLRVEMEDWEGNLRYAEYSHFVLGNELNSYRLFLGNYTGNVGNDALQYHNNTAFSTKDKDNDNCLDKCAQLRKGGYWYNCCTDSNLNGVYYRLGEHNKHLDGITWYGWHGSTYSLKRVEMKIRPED

T2: P66 (rabbit ANGPTL7-his) (rabbit, UniProt G1T4P1 27-344)
T2 construct: mature; also called rabbit ANGPTL7 protein
T2 sequence: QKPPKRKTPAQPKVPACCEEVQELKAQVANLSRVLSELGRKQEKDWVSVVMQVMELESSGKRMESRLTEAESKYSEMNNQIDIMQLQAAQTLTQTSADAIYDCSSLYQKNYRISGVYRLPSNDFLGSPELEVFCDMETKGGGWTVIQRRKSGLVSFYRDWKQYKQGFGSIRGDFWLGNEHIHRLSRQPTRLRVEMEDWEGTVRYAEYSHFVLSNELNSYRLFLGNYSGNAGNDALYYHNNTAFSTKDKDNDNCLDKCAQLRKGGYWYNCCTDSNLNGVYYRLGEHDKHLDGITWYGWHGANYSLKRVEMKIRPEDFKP

T3: muANGPTL7-his (R&D Systems) (mouse, UniProt Q8R1Q3 22-337, limits assumed)
T3 construct: Bought protein; also called mouse ANGPTL7 protein
T3 sequence (looked up): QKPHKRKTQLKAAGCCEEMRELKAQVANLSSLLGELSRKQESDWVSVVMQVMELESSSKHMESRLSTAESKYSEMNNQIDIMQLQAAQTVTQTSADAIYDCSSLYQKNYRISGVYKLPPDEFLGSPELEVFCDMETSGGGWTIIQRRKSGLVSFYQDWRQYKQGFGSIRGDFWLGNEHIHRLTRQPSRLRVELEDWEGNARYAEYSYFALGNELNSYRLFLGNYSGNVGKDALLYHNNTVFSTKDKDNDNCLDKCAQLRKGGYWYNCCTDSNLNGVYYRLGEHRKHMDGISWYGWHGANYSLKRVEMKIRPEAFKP

T4: Pext-01 (huANGTPL7-FLAG multimer) (human, UniProt O43827 27-346)
T4 construct: also called PExt-1; human wild type ANGPTL7 multimer; not shown: FLAG tag
T4 sequence: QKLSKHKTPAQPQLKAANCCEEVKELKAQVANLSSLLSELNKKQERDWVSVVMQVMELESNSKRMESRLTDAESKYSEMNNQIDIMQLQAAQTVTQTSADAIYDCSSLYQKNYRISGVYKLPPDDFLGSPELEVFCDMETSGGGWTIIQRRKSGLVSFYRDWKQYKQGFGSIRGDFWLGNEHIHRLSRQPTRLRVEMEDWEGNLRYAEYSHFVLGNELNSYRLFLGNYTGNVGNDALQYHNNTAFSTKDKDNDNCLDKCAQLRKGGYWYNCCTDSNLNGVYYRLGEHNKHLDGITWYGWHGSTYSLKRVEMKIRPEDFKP

B1: ATX-P-427 (antibody, human IgG1, kappa, N297A, V domains shown)
VH: EVQLVESGGGVVRPGGSLRLSCAASGFSFDDYGMSWVRQVPGKGLEWVSGINWNGGSTGYADSVKGRFTISRDNAKNSLYLQMSSLRAEDTALYYCASYSGSFRDAFDIWGQGTMVTVSS
VL: AIQMTQSPSSLSASVGDRVTITCRASQGIRNDLGWYQQKPGKAPKLLIYAASSLQSGVPSRFSGSGSGTDFTLTISSLQPEDFATYYCLQDYNYPYTFGQGTKLEIKR
notes: Full chains (VH + hIgG1-Agly-Fc)
B2: ATX-P-439 (antibody, human IgG1, kappa, N297A, V domains shown)
VH: not shown
VL: DIQMTQSPSSVSASVGDRVTITCRASQGISSWLAWYQQKPGKAPKLLIYAASSLQSGVPSRFSGSGSGTDFTLTISSLQPEDFATYYCQQANSFPWTFGQGTKVDIKR
notes: as for B1
B3: ATX-P-442 (antibody, human IgG1, kappa, N297A, V domains shown)
VH: QITLKESGPTLVKPTQTLTLTCTFSGFSLSTSGVGVGWIRQPPGKALEWLALIYWNDDKRYSPSLKSRLTITKDTSKNLVVLTMTNMDPVDTATYYCARDYGDYWFFDLWGRGTPVTVSS
VL: B2 VL with V11L, W32Y, A91S, N92F, F94T, W96L, Q100G, V104L, D105E
notes: as for B1
B4: ATX-P-425 (antibody, human IgG1, kappa, N297A, V domains shown)
VH: EVQLVESGGGLVKPGGSLRLSCAASGFTFSTYSMNWVRQAPGKGLEWVSSITSSSSYMFYADSVMGRFTISRDNAKNSLYLQMNSLRAEDTADYYCARDSNWGEAFDIWGQGTMVTVSS
VL: DIQMTQSPSSLSASVGDRVTITCRASQGIRIDLGWFQQKPGKAPKRLIYAASSLPSGVPSRFSGSGSGTEFTLTISSLQPEDFATYYCLQHNSYPWTFGQGTKVEIKR
notes: as for B1
B5: ATX-P-423 (antibody, human IgG1, kappa, N297A, V domains shown)
VH: QVQLVESGGGVVQPGRSLRLSCAASGFTFSSYGMHWVRQAPGKGLEWVSHITYDGSDKYYGDSVKGRFTISRDNSKNTLYLQMNSLRAEDTAVYYCAKDGYSSGWWYFDYWGQGTLVTVSS
VL: B4 VL with I31N, F36Y, P55Q, T72A, W96L, Q100G, V104L
notes: as for B1
B6: ATX-P-424 (antibody, human IgG1, kappa, N297A, V domains shown)
VH: EVQLVESGGGLVKPGGSLRLSCAASGFTFSSYSMNWVRQAPGKGLEWVSSITSSSYIFYADSLKGRFTISRDNAKNSLFLQMNSLRAEDTAVYYCARDSNWGEAFDIWGQGTMVTVSS
VL: B4 VL with I31N, F36Y, T85I
notes: as for B1
B7: ATX-P-440 (antibody, human IgG1, kappa, N297A, V domains shown)
VH: EVQLVESGGGVVRPGGSLRLSCAASGFTFDDYGMSWVRQAPGKGLEWVSTINWNGGNTGYADSVKGRFTISRDNAKNSLYLQMNSLRAEDTALYYCARDEGAAGLGYYFDYWGQGTLVTVSS
VL: DIQMTQSPSTLSASVGDRVTITCRASQSISSWLAWYQQKPGKAPKLLIYATSSLQSGVPSRFSGSGSGTDFTLTISSLQPEDFATYYCQQSYSTPITFGQGTRLEIKR
notes: as for B1
B8: ATX-P-448 (antibody, human IgG1, kappa, N297A, V domains shown)
VH: QVQLVESGGGVVQPGRSLRLSCAASGFPFSSYGMHWVRQAPGKGLEWVAVMSYDGINGYYADSVKGRFTISRDNSKNTLYLQMNSLRAEDTAVYYCARLVYADDAFDIWGQGTTVTVSS
VL: EIVLTQSPATLSLSPGERATLSCRASQSVSSYLAWYQQKPGQAPRLLIYDASNRATGIPARFSGSGSGTDFTLTISSLEPEDFAVYYCQQRSNWPLTFGGGTKVEIKR
notes: as for B1
B9: ATX-P-432 (antibody, human IgG1, kappa, N297A, V domains shown)
VH: QVQLVQSGAEVKKPGASVKVSCKASGYTFTDYYIHWVRQAPGPGLEWLGWINPNTGATKYAQKFQGRVTMTRDTSISTAYMELSRLRSDDTAVYYCAREDNGNYGDVFDIWGQGTMVTVSS
VL: not shown
notes: as for B1

One assay addresses T1, P60 (huANGPTL7-Fibrinogen-his). Nature of the assay: BLI Octet HTX; IgG on AHC sensor; P60 at 200 nM; 1:1 fit. How it is done:
ANGPTL7 Antibody Kinetics. Experiments were conducted to determine the reactivity and dissociation constants (KD) of anti-ANGPTL7 antibodies with the human fibrinogen domain of the ANGPTL7 protein. Binding experiments were performed on Octet HTX (ForteBio) in 1×PBS, pH 7.4, 0.1 mg/ml BSA, 0.05% Sodium Azide, and 0.02 Tween 20. Antibodies at a concentration of 50 nM were loaded on pre-hydrated AHC biosensors for 5 min. The loaded sensors were dipped into monovalent P60 (huANGPTL7-Fibrinogen-his) at a concentration of 200 nM for 5 min association, followed by 10 min dissociation. […] Responses (nm) at the end of association were also determined (Table 2).
In general terms: BLI is a label-free optical method that tracks binding on a fibre tip over time.
B1 yielded a Kd of 65.1 nM and a Response of 0.5 nm.

On to B2, for which the Response worked out at 0.28 nm.

As for B3, the Kd is 4.62 nM and the Response came to 0.69 nm.

As to B4, the Kd was 305 nM.

For the molecule B5, the Kd turned out to be 18.3 nM.

In turn, B6 gave a Kd of 106 nM.

For B7, the Kd amounted to 55.8 nM.

On to B8, for which the Kd was determined as 4.69 nM.

The target in another assay is T2, P66 (rabbit ANGPTL7-his). The assay is described as follows: BLI Octet HTX; IgG on AHC sensor; P66 at 200 nM; 1:1 fit. How it is done: (§1) Experiments were also conducted to determine the reactivity and dissociation constants (KA) of anti-ANGPTL7 antibodies with the rabbit ANGPTL7 protein. Binding experiments were performed on Octet HTX (ForteBio) in Rx PBS, pH 7.4, 0.1 mg/mi BSA, 0.05% Sodium Azide, and 0.02% Tween 20. Antibodies at a concentration of 50 nM were loaded on pre-hydrated AHC biosensors for 5 min. The loaded sensors were dipped into monovalent P66 (rabbit ANGPTL7-his) at a concentration of 200 nM for 5 min of association, followed by 10 min of dissociation. […] Responses (nm) at the end of association were also determined (Table 6).
Molecule B1 returned a Kd of 3.21 nM and a Response of 0.93 nm.

As to B2, the Kd came to 2.95 nM and the Response came out at 0.92 nm.

For the molecule B3, the Kd stood at 3.38 nM and the Response was determined as 0.95 nm.

The molecule B4 gave a Kd of 2.38 nM and a Response of 0.95 nm.

Consider B5, for which the Kd came to 6.69 nM and the Response came to 1.02 nm.

On to B6, for which the Kd is 4.65 nM and the Response was 0.93 nm.

For B7, the Kd came out at 6.27 nM and the Response is 0.57 nm.

B8: the Kd was 0.949 nM and the Response was found to be 0.75 nm.

The next assay concerns the target T3, muANGPTL7-his (R&D Systems). Nature of the assay: BLI Octet HTX; IgG on AHC sensor; muANGPTL7-his at 200 nM. How it is done: as §1, with “(KD)” for “(KA)”, “mouse” for “rabbit”, “1×PBS,” for “Rx PBS,”, “[…].” for “min.”, “muANGPTL7-his (R&D Systems)” for “P66 (rabbit ANGPTL7-his)”, “5).” for “6).”
As for B9, the binding result is listed as “no binding (tested: 200 nM)”.

Consider B5, for which the binding result is “no binding (tested: 200 nM)”.

In the case of B6, the binding result is on record as “no binding (tested: 200 nM)”.

Another assay has the same target. Nature of the assay: BLI Octet HTX; IgG on AHC sensor; muANGPTL7-his at 200 nM; 1:1 fit. How it is done:
as §1, with “(KD)” for “(KA)”, “mouse” for “rabbit”, “1×PBS,” for “Rx PBS,”, “[…].” for “min.”, “muANGPTL7-his (R&D Systems)” for “P66 (rabbit ANGPTL7-his)”, “5).” for “6).”
The molecule B9 displayed a Response of 0.03 nm.

Molecule B1 yielded a Kd of 10.3 nM and a Response of 0.48 nm.

As to B2, the Response turned out to be 0.53 nm.

The molecule B3 came in with a Response of 0.32 nm.

The molecule B5 came in with a Response of 0.14 nm.

B6 showed a Response of 0.14 nm.

Molecule B7 registered a Kd of 55.3 nM and a Response of 0.21 nm.

In turn, B8 had a Response of 0.69 nm.

A further assay deals with T4, Pext-01 (huANGTPL7-FLAG multimer). Nature of the assay: BLI Octet HTX; IgG on AHC sensor; Pext-01 at 100 nM; 1:1 fit; apparent KD. How it is done: Experiments were also conducted to determine the reactivity and dissociation constants (KD) of anti-ANGPTL7 antibodies with the human ANGPTL7 multimer protein. Binding experiments were performed on Octet HTX (ForteBio) in 1×PBS, pH 7.4, 0.1 mg/ml BSA, 0.05% Sodium Azide, and 0.02% Tween 20. Antibodies at a concentration of 50 nM were loaded on pre-hydrated AHC biosensors for 5 mi. The loaded sensors were dipped into Pext-01 (huANGTPL7-FLAG) at a concentration of 100 nM for 5 min of association, followed by 10 min of dissociation. […] Responses (nm) at the end of association were also determined (Table 7).
On to B1, for which the Response came to 0.82 nm.

Regarding B2, the Kd was 12.8 nM and the Response is 0.87 nm.

On to B4, for which the Response was determined as 0.83 nm.

Regarding B5, the Response turned out to be 0.87 nm.

On to B6, for which the Response amounted to 0.76 nm.

B7: the Response came to 0.61 nm.

Take B8: the Response came to 0.58 nm.
